Patent publication US20020123056

Test system: T1, GST-SGK2 fusion protein (human SGK2 with N-terminal Glutathione S-transferase tag, expressed in Hi5 insect cells)
T1 sequence: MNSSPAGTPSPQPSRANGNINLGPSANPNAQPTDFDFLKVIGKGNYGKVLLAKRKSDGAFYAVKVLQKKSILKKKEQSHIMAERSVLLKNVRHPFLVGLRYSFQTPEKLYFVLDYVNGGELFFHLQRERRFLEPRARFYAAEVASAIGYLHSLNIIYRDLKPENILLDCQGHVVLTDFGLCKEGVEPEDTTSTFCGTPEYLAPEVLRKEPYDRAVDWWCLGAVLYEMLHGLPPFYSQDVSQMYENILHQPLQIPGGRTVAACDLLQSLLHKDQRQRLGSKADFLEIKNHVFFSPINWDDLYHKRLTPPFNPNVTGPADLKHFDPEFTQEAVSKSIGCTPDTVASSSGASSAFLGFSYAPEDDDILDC

Substance: active His-tag PDK1 (expressed in insect cells, purified on Talon affinity column)
- in vitro phosphorylation of SGK2 by PDK1 (32P, SDS-PAGE imaging): SGK2 activated by PKD1 was significantly phosphorylated, while non-activated SGK2 was not
